From patent publication US20100041875A1 (PROGENICS PHARMACEUTICAL INC AND CORNELL RESEARCH FOUNDATION, published 2010)

Target: full-length WT JR-FL (gp160) Env (JR-FL WT) (HIV-1 isolate JR-FL (subtype B), UniProt P20871 32-848)
Assay: cell-based or functional assay

B1: MAb 2G12 (antibody, V domains shown)
VH: EVQLVESGGGLVKAGGSLILSCGVSNFRISAHTMNWVRRVPGGGLEWVASISTSSTYRDYADAVKGRFTVSRDDLEDFVYLQMHKMRVEDTAIYYCARKGSDRLSDNDPFDAWGPGTVVTVSP
VL: VVMTQSPSTLSASVGDTITITCRASQSIETWLAWYQQKPGKAPKLLIYKASTLKTGVPSRFSGSGSGTEFTLTISGLQFDDFATYHCQHYAGYSATFGQGTRVEIKR
neutralization of Env-pseudotyped virus infectivity (U87.CD4.CCR5 cells), mean IC50: 1.6 µg/mL
